These results are taken from US20190358326A1.

Holding throughout (assay): virus attachment assay at 4° C. on transfected L929 cells, immunostaining, Mander's co-localization coefficient
The target in assay [1] is human scavenger receptor class B member 2 (hSCARB2) on L929 cells (human) (UniProt Q14108).
For assay [2], the target named is human tryptophanyl-tRNA synthetase (hWARS) on cells (human) (UniProt P23381).
Assay [3] addresses human P-selectin glycoprotein ligand-1 (hPSGL1) on L929 cells (human) (UniProt Q14242).
UniProt Q14242, sequence (Q14242 42-412): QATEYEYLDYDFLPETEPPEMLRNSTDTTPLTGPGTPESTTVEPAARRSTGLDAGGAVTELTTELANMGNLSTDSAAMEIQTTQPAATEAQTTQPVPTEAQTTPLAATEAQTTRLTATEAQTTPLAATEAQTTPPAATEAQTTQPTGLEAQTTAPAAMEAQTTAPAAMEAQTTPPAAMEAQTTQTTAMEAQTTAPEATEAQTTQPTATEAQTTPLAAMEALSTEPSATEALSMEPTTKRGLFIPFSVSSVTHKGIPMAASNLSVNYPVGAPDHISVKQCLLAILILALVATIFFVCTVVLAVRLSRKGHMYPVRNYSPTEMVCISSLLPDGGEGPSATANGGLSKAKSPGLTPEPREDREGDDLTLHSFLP

UniProt Q14108, sequence (Q14108 whole entry): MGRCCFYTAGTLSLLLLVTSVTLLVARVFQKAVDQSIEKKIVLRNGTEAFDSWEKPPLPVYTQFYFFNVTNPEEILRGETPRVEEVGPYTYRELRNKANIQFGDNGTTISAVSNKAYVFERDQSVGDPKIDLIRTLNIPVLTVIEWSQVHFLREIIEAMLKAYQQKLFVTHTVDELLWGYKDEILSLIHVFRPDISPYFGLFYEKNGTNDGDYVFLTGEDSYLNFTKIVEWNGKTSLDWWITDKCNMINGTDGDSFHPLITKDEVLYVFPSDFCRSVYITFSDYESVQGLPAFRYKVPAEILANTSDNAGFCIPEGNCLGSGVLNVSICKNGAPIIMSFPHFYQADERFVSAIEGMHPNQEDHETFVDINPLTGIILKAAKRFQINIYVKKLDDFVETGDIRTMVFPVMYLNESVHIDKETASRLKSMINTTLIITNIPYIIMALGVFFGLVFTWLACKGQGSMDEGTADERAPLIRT
UniProt P23381, sequence (P23381 2-471): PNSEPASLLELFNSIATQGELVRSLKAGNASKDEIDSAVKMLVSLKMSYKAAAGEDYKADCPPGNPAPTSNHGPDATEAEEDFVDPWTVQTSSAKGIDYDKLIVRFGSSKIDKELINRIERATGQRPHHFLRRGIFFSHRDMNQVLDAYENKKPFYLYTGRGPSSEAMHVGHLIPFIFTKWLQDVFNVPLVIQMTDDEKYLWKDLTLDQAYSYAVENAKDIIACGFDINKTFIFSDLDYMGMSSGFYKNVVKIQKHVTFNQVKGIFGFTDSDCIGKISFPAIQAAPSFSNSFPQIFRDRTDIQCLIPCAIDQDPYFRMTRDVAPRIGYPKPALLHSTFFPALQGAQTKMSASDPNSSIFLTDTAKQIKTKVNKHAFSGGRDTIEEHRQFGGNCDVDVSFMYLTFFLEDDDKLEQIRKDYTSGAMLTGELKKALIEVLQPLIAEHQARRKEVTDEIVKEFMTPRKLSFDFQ

Regarding enterovirus 71 (EV-A71) virus, the co-localization coefficient (R) in assay [1] stood at 0.432; in assay [2] it was 0.655; in assay [3] it was 0.501.
